Assay results from the supplement of paper PMC9170038.

System: MS2 coat protein
Assay: apparent KD of MS2 coat protein; designed switch direction (-1 OFF switch, 1 ON switch): -1; higher = weaker reporter binding
How it was run: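 Designed RNA switches sharing common flanks were transcribed on Illumina chips by stalled E. coli RNA polymerase. They were titrated with SNAP-549-labelled MS2 coat protein, from 0.7 or 1.5 nM doubling to 3 µM, in Tris-HCl pH 7.5 buffer with KCl, MgCl2, BSA, DTT, tRNA and Tween-20. Titrations ran without input, with 200 uM small-molecule ligand, or with an oligonucleotide input. The apparent KD of each design is the median over its clusters, after curve-fitting of normalised cluster fluorescence.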

[1] = Eterna round: R95, input ligand: FMN 200 uM
[2] = Eterna round: R95, input ligand: microRNA oligo, concentration not stated
[3] = Eterna round: R95, input ligand: none
[4] = input ligand: microRNA oligo, concentration not stated

Sequence: ACGAAACAUGAGGAUCACCCAUGUGAGGAUAUGUAAAGACUAGACAAAGAACAGAAAAACAGAAGGCACACAGA [JR_Exclusion1_Sub002] (puzzle: Exclusion 1)
- apparent KD of MS2 coat protein [1]: 0.028 µM
- apparent KD of MS2 coat protein [2]: 0.0197 µM
- apparent KD of MS2 coat protein [3]: 0.0267 µM

Sequence: UUGGCAGGUUUUUUGUUUGACAUGAGGAUCACCCAUGUUGCGUGGGUUGUGUGUGUGCGGUGUAUAUAUAUGGUUCU [-19.3, -40.7 kcal, A 14%] (Eterna round: R97, puzzle: Sensor, turn-off variant 1)
- apparent KD of MS2 coat protein (input ligand: FMN 200 uM): 0.203 µM
- apparent KD of MS2 coat protein (input ligand: none): 0.364 µM

Sequence: ACAUGAGGAUCACCCAUGUCAGGCUGGUCCGCUCCGGCUGUUGAGGAUAUAGCCCGGUAUCCGCGCUAGAAGGUGAGGGCCGGC [Aenatbe mod 28] (Eterna round: R96, puzzle: Exclusion NG 3)
- apparent KD of MS2 coat protein (input ligand: FMN 200 uM): 0.0248 µM
- apparent KD of MS2 coat protein [4]: 0.0263 µM
- apparent KD of MS2 coat protein (input ligand: none): 0.0284 µM

Sequence: GGUUAUUGCAAGGAUAUGCUUUUUUUUGAUAUUGCAGAAGGUGCAACAUGAGGAUCACCCAUGUUGGAUGGGUU [JR_E6_Sub019] (puzzle: Exclusion 6)
- apparent KD of MS2 coat protein [2]: 0.0941 µM

Sequence: GGUGCGUUUGUGAGGAUAUGCUGGUCCUUGGAUCAGCAGAAGGCACAUGAGGAUCACCCAUGUGGUGUCGUCCC [salish99_Bmod_Ex4_041] (puzzle: Brourd's mod of Exclusion 4)
- apparent KD of MS2 coat protein [2]: 0.21 µM

Sequence: UGUCAGAUGGUAGGAUAUCCAUAUCGCGUGUCCCUUUCCUAACAUGAGGAUCACCCAUGUCGGUGGGAGAAGGGCCGUAUGGUG [salish99_ExNG02_R04_035] (Eterna round: R96, puzzle: Exclusion NG 2)
- apparent KD of MS2 coat protein [4]: 0.00949 µM

Sequence: GCCAACGACUGAGGAUAUGCUUAUAGACAUGAGGAUCACCCAUGUAAAUGGGACAUGUCAAACCAGCAGAAGGCAGGACCUGGC [Inteinrais] (Eterna round: R96, puzzle: Exclusion NG 2)
- apparent KD of MS2 coat protein (input ligand: FMN 200 uM): 0.1 µM
- apparent KD of MS2 coat protein [4]: 0.0575 µM
- apparent KD of MS2 coat protein (input ligand: none): 0.0703 µM

Sequence: UAUAAGGUAGGAUAUACGAAUAAAUAGGGUAGAAUAAUAACACAUGAGGAUCACCCAUGUAGAAGGACCAAUAU [Mat - Exclusion 2 - Mod of my Tesla design - D28] (puzzle: Exclusion 2)
- apparent KD of MS2 coat protein [1]: 0.0393 µM
- apparent KD of MS2 coat protein [2]: 0.0211 µM
- apparent KD of MS2 coat protein [3]: 0.0203 µM

Sequence: CUGAGGUAGCGGUCCUAUGACAUGAGGAUCACCCAUGUACCUUGCUUUGAGCUUAUUGCUCGUCUUAUGAUUCUCGG [Mat - Sensor v3 - turn-off var 1 - JL Mod - D41] (puzzle: Sensor v3, turn-off variant 1)
- apparent KD of MS2 coat protein [1]: 0.399 µM
- apparent KD of MS2 coat protein [2]: 0.299 µM
- apparent KD of MS2 coat protein [3]: 0.46 µM

Sequence: AGUAGAUCUACGCUUGCGUGGAUCUGCAAUGUAGGUGUUACAUGAGGAUCACCCAUGUCCUCAUUUGCUCGUCUUAG [JL turnoff v2 99.10] (puzzle: Sensor v3, turn-off variant 2)
- apparent KD of MS2 coat protein [1]: 0.259 µM
- apparent KD of MS2 coat protein [2]: 0.81 µM

Sequence: GUCACUAGAGGAUAUACAAUGGUAUAUGAUCCUAGAGACAUACAUGAGGAUCACCCAUGUAGAAGGCUAGUAUU [Exclusion 2 - 5] (puzzle: Exclusion 2)
- apparent KD of MS2 coat protein [2]: 0.0583 µM

Sequence: GGCUGACAUGUAGGAUAUCUGCACGUUUAGUGCAGAGAAGGACAUGAGGAUCACCCAUGUAUAGCGACUUCGGUCGCAACAGCC [ENG1/2-A2] (Eterna round: R96, puzzle: Exclusion NG 1)
- apparent KD of MS2 coat protein (input ligand: FMN 200 uM): 0.115 µM
- apparent KD of MS2 coat protein [4]: 0.0316 µM
- apparent KD of MS2 coat protein (input ligand: none): 0.0483 µM

Sequence: UUUGCAAGCUUUAGAUCCCACAUGAGGAUCACCCAUGUUGCUGCCGUGAGGUAGCAUUUAACUAAUGCUCGUCUUAU [JL TOV1 3.48] (Eterna round: R97, puzzle: Sensor, turn-off variant 1)
- apparent KD of MS2 coat protein (input ligand: FMN 200 uM): 0.109 µM
- apparent KD of MS2 coat protein (input ligand: none): 0.169 µM

Sequence: UAUCGGGACUGAGGAUAUUCGUUCGAGCACGAAGAAGAAGGUAGUGUCAGGGACAUGAGGAUCACCCAUGUGAUCUCAGUCUUA [JL ViennaUCT Erinle mod 8] (Eterna round: R96, puzzle: Exclusion NG 1)
- apparent KD of MS2 coat protein (input ligand: FMN 200 uM): 0.127 µM
- apparent KD of MS2 coat protein [4]: 0.0867 µM
- apparent KD of MS2 coat protein (input ligand: none): 0.0989 µM

Sequence: CCGCCUGGAUAGGAUAUAGAGCUUUGAGAGGUCCUAGAAGGGUCCACAUGAGGAUCACCCAUGUCACAAUAUCG [Eternabot (L1) Solution 71] (Eterna round: R97, puzzle: Exclusion 6)
- apparent KD of MS2 coat protein (input ligand: FMN 200 uM): 0.028 µM
- apparent KD of MS2 coat protein (input ligand: none): 0.0296 µM

Sequence: GCCGUCGUUGUGAGGAUAUGCCUAUGGAUACGUAGGCAGAAGGCACAUGAGGAUCACCCAUGUCCAAAGACGGC [JL-BMX4-4.28 Eli mod] (Eterna round: R97, puzzle: Brourd's mod of Exclusion 4)
- apparent KD of MS2 coat protein (input ligand: FMN 200 uM): 1 µM
- apparent KD of MS2 coat protein (input ligand: none): 0.101 µM

Sequence: AUUAUGUGAGGAUAUUAGUAGUAAAUGAAUAAAAUUAUUACUGAGAAGGCACAUGAGGAUCACCCAUGUUCCUU [Mat - Exclusion 4 - Eli Mod - D6] (Eterna round: R97, puzzle: Exclusion 4)
- apparent KD of MS2 coat protein (input ligand: FMN 200 uM): 0.155 µM
- apparent KD of MS2 coat protein (input ligand: none): 0.0181 µM

Sequence: UGUACUAUGCGUGCUGACAUGCGUAGUGCAGCAGGUGUAACAUGAGGAUCACCCAUGUCCUCAUUUGCUCGUCUUAA [Mat - Sensor v3 - Turn-off var 2 - D14] (puzzle: Sensor v3, turn-off variant 2)
- apparent KD of MS2 coat protein [1]: 0.207 µM
- apparent KD of MS2 coat protein [2]: 0.335 µM

Sequence: GUUAAGUGAGGAUAUGGUGAGUAGUGCCUGAGCGCUGCUCACCAGAAGGCACAUGAGGAUCACCCAUGUAUAAC [Mat - Exclusion 4 - Mod of JL - D16] (puzzle: Exclusion 4)
- apparent KD of MS2 coat protein [2]: 0.0199 µM

Sequence: AAUAACAGAGGAUAUACUAUUUUAUGUGUUUAUUGUUUUGAACAUGAGGAUCACCCAUGUAGAAGGCUGAUUGA [JMF 78] (puzzle: Exclusion 2)
- apparent KD of MS2 coat protein [2]: 0.0407 µM

Sequence: GGUGCGUAUGUGAGGAUAUGCUGGUCCUUGGAUCUGCAGAAGGCACAUGAGGAUCACCCAUGUGGUGUCGUACC [salish99_Bmod_Ex4_024] (puzzle: Brourd's mod of Exclusion 4)
- apparent KD of MS2 coat protein [2]: 0.276 µM

Sequence: UCGGCGCGAGGAUAUGCGGUUGCUUGGUAGGGUCGUGGCGUACAUGAGGAUCACCCAUGUAGAAGGCGCGCCGC [Apr-15 SS2-32*] (puzzle: Exclusion 2)
- apparent KD of MS2 coat protein [2]: 0.0155 µM

Sequence: UCGGCGCGAGGAUAUACGUUUGCUUUUUUGGGUCGUUGCGUACAUGAGGAUCACCCAUGUAGAAGGCGCGCCGC [Apr-15 SS2-25] (puzzle: Exclusion 2)
- apparent KD of MS2 coat protein [2]: 0.0241 µM

Sequence: AAGUAGUGUGUGAGGAUAUUGGUGGAAUGACACAUUAAGAAGGCACAUGAGGAUCACCCAUGUGGGUAGACACG [Brourd's EX4 #21] (Eterna round: R97, puzzle: Brourd's mod of Exclusion 4)
- apparent KD of MS2 coat protein (input ligand: FMN 200 uM): 0.335 µM
- apparent KD of MS2 coat protein (input ligand: none): 0.0278 µM

Sequence: GGAGGAACCGGAGGAUAUUGAUUUAAGCGGUUACGCAAGACAUGAGGAUCACCCAUGUGUCCGGACGAGAAGGCCGAAGAAGAA [ExNG2 3rd] (Eterna round: R96, puzzle: Exclusion NG 2)
- apparent KD of MS2 coat protein (input ligand: FMN 200 uM): 0.0437 µM
- apparent KD of MS2 coat protein [4]: 0.0306 µM
- apparent KD of MS2 coat protein (input ligand: none): 0.0389 µM

Sequence: GUUAAACAUGAGGAUCACCCAUGUAAGGAUAUGCUGAGGUCGCGCUGACGUGACUGAAGCAGAAGGUACAAAUG [Mat - Mod of JL D62] (puzzle: Exclusion 1)
- apparent KD of MS2 coat protein [1]: 0.0854 µM
- apparent KD of MS2 coat protein [2]: 0.0487 µM
- apparent KD of MS2 coat protein [3]: 0.0739 µM
